Values quoted from earlier work as cited in publication PMC5689459.

Biological target: delta-opioid receptor (Homo sapiens) (UniProt P41143)
Test: radioligand

Morphiceptin, sequence (P02666 whole entry, looked up): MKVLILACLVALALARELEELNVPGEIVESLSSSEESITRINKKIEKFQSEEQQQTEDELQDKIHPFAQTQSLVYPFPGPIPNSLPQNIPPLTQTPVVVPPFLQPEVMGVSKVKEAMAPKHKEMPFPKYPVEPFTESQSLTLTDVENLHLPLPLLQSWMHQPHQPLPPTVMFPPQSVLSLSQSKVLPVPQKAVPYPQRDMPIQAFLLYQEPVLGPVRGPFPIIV

Substance: Morphiceptin (from UniProt P02666)
- Ki: > 10 µM
